According to publication PMC2841500 (Biochemical Journal, 2010):
Substitutions are numbered along the chain they refer to. Numbers in names are those of the source. Where two headings read alike, the source gives them in different places.

How the values were obtained:
pulsed ESR = target: the molecule itself; test: pulsed ESR
Alba1 F60A [1] = target: T1, Alba1 F60A (Sulfolobus solfataricus, UniProt P60849 1-97, F60A); test: EMSA
T1 sequence: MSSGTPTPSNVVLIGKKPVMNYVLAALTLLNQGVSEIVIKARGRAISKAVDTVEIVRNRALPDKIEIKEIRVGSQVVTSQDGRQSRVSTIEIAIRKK

Alba1 (Sso10b) [2] = target: T2, Alba1 (Sso10b) (Sulfolobus solfataricus, UniProt P60849 1-97); test: EMSA
T2 sequence: T1 sequence with A60F

Alba1 (Sso10b) [3] = target: T2, Alba1 (Sso10b); test: EMSA; remark: listed apart in the source
Alba1 F60A [4] = target: T1, Alba1 F60A; test: EMSA; remark: listed apart in the source
Alba1 (Sso10b) [5] = target: T2, Alba1 (Sso10b); test: EMSA; remark: listed apart in the source
Alba1 (Sso10b) [6] = target: T2, Alba1 (Sso10b); test: EMSA; remark: listed apart in the source

B1: spin-labelled Alba R59C (S. solfataricus Alba1 R59C modified with MTSSL) (natural protein, Sulfolobus solfataricus, UniProt P60849 1-97, looked up)
chain: T1 sequence with R59C, A60F
modifications: methanethiosulfonate spin label MTSSL on the cysteine at position 59
B1: binds (pulsed ESR).

B2: 39 bp duplex (dsDNA)
DNA 1: CCTCGGTGCTAAGTTGATGCTGGTACTCGGAGTATCCCG
DNA 2: CGGGATACTCCGAGTACCAGCATCAACTTAGCACCGAGG
Work on B2 yielded a Kd (Alba1 F60A [1]) of 520 ± 13 nM.

B3: 39 mer ssDNA (ssDNA)
DNA: B2 DNA 1
In the case of B3, the Kd (Alba1 (Sso10b) [2]) is reported as 270 ± 13 nM.

B4: 30U (ssRNA)
RNA: UUUUUUUUUUUUUUUUUUUUUUUUUUUUUU
With B4 the Kd (Alba1 (Sso10b) [3]) was 900 ± 38 nM.

B5: 16 bp duplex (dsDNA)
DNA 1: CCCGGCGTGCGGCCCG
DNA 2: CGGGCCGCACGCCGGG
B5 showed a Kd (Alba1 F60A [4]) of 710 ± 20 nM.

B6: 28A (ssRNA)
RNA: AAAAAAAAAAAAAAAAAAAAAAAAAAAA
In the case of B6, the Kd (Alba1 (Sso10b) [5]) is reported as 960 ± 30 nM.

B7: 16 mer ssRNA (ssRNA)
RNA: CCCGGCGUGCGGCCCG
With B7 the Kd (Alba1 (Sso10b) [6]) was 920 ± 69 nM.
